Measurements published in patent US9951373B2, “Oplophorus-derived luciferases, novel coelenterazine substrates, and methods of use” (Promega Corporation, priority 2010, dated 2018).

B1: Luc2: a firefly luciferase (SEQ ID NOs: 28 and 29) (protein, listed as Photinus pyralis)
chain: MEDAKNIKKGPAPFYPLEDGTAGEQLHKAMKRYALVPGTIAFTDAHIEVDITYAEYFEMSVRLAEAMKRYGLNTNHRIVVCSENSLQFFMPVLGALFIGVAVAPANDIYNERELLNSMGISQPTVVFVSKKGLQKILNVQKKLPIIQKIIIMDSKTDYQGFQSMYTFVTSHLPPGFNEYDFVPESFDRDKTIALIMNSSGSTGLPKGVALPHRTACVRFSHARDPIFGNQIIPDTAILSVVPFHHGFGMFTTLGYLICGFRVVLMYRFEEELFLRSLQDYKIQSALLVPTLFSFFAKSTLIDKYDLSNLHEIASGGAPLSKEVGEAVAKRFHLPGIRQGYGLTETTSAILITPEGDDKPGAVGKVVPFFEAKVVDLDTGKTLGVNQRGELCVRGPMIMSGYVNNPEATNALIDKDGWLHSGDIAYWDEDEHFFIVDRLKSLIKYKGYQVAPAELESILLQHPNIFDAGVAGLPDDDAGELPAAVVVLEHGKTMTEKEIVDYVASQVTTAKKLRGGVVFVDEVPKGLTGKLDARKIREILIKAKKGGKIAV
B2: 9B8 opt: codon optimized version of the 9B8 variant (SEQ ID NO: 24) (protein)
chain: MVFTLEDFVGDWRQTAGYNLDQVLEQGGLSSLFQKLGVSVTPIQKIVLSGENGLKIDIHVIIPYEGLSGYQMGQIEKIFKVVYPVDDHHFKVILHYGTLVIDGVTPNMIDYFGRPYEGIAVFDGKKITVTGTLWNGNKIIDERLINPDGSLLFRVTINGVTGWRLCERILA

What was measured:
HEK293 cells = experiment: Luminescence of luciferases in lysed HEK293 cells (codon optimization); type: cell-based, human; details: normalized
Description: Codon optimized versions of IV (“IV opt” (SEQ ID NO: 22) and “IV optB” (SEQ ID NO: 23)) and 9B8 (“9B8 opt” (SEQ ID NO: 24) and “9B8 optB” (SEQ ID NO: 25)) were generated and cloned into pF4Ag by methods known in the art. HEK293 cells were plated in 96-well plates at 15,000 cells/well and grown overnight at 37° C. The following day, the cells were transiently transfected in 6 well replicates using TRANSIT®-LT1 Transfection Reagent (Mirus Bio) with 100 ng of plasmid DNA encoding the codon optimized versions in pF4Ag and grown overnight at 37° C. HEK293 cells were also transfected with either pGL4.13 (Luc2/SV40) (Paguio et al., “pGL4 Vectors: A New Generation of Luciferase Reporter Vectors” Promega Notes, 89:7-10 (2005)) or pGL4.73 (hRL/SV40) (Id.) to normalize for differences in transfection efficiency. Ten ng/transfection or 10% of the total DNA transfected was used.
The OgLuc variants had higher luminescence compared to Luc2 and hRL.

[1] = Thermal stability of OgLuc variants at 60° C.; type: physicochemical; details: luminescence at start of incubation (t=0), PBI-3939
Description: Aliquots were removed at different time-points and placed on dry ice to freeze the samples. […] Luminescence was measured on a GLOMAX® luminometer (Promega Corp.).
The thermal stability of the variants at 60° C. was examined as described above, except the assay buffer contained 100 mM MES pH 6.0 instead of HEPES.

CRE [2] = experiment: Transcriptional reporter, bulk transfection, CRE in NIH3T3 cells; type: cell-based; details: NIH3T3, 10 nM FSK, 4 h
Description: (§1) The transcriptional reporter containing HRE and 9B8 opt-P was used in the bulk transfection of HeLa cells
(§2) HEK293, NIH3T3, or HeLa cells were plated to a single well of a 6-well tissue culture plate the day before transfection at a density of 4.5×10^5 cells/well in 3 mL complete medium (DMEM+10% FBS+1×NEAA+1× sodium pyruvate) for HEK293 cells, 3×10^5 cells/well in 3 mL complete medium (DMEM+10% fetal calf serum (FCS)+1×NEAA+1× sodium pyruvate) for NIH3T3 cells, or 9.9×10^5 cells/well in 3 mL complete medium (DMEM+10% FBS+1×NEAA) for HeLa cells. Cells were grown overnight at 37° C.
(§3) 3,300 ng of reporter plasmid DNA in 155 μL OPTI-MEM® was mixed with 9.9 μL FUGENE® HD transfection reagent, vortexed briefly, and incubated at room temperature for 10 min. The CRE transcriptional reporters were used to transfect HEK293 and NIH3T3 cells. The HRE transcriptional reporters were used to transfect HeLa cells. The reporter mixture was added to cells and mixed by gentle rocking followed by incubation at 37° C. for 6 hrs (HEK293 and NIH3T3) or 3 hrs (HeLa). […]
(§4) FSK (CRE stimulator) or 17-AAG (HRE stimulator; 17-Allylamino-demethoxy geldanamycin) in OPTI-MEM® was added to the cells (10 nM or 10 μM final concentration for FSK; 1 nM or 1 μM final concentration for 17-AAG) and incubated at 37° C. for 4 hrs (FSK) or 6 hrs (17-AAG). […] Luminescence was measured on a GLOMAX® Luminometer.

[3] = Brightness of purified OgLuc variant compared to firefly luciferase; type: biochemical
Description: The 9B8 OgLuc variant was overexpressed and purified as described in Example 33. Reactions between diluted enzyme and substrate were performed using the following 2× buffer/assay reagent: 100 mM MES pH 6.0, 1 mM CDTA, 150 mM KCl, 35 mM thiourea, 2 mM DTT, 0.25% TERGITOL® NP-9 (v/v), 0.025% MAZU® DF 204, 10 mg/mL 2-hydroxy-β-cyclodextrin, and 20 μM PBI-3939. The final assay concentrations of purified enzyme and substrate were 0.5 pM and 10 μM, respectively. In parallel, reactions between diluted purified firefly luciferase (i.e., QUANTILUM® Recombinant Luciferase (Promega Corp.)) and luciferin were analyzed. The assay buffer/reagent for the firefly luciferase reaction was BRIGHT-GLO™, and the final assay concentrations were 0.5 pM enzyme and 500 μM luciferin. As the buffers/reagents for each reaction were known to provide “glow” kinetics, a 15 min time point was used to collect luminescence data.

CRE [4] = experiment: Transcriptional reporter, bulk transfection, CRE in HEK293 cells; type: cell-based, human; details: HEK293, 10 nM FSK, 4 h
Description: as §1, §2, §3, §4

[5] = tested on: cAMP-response element (CRE); experiment: cAMP transcriptional reporter in HEK293 cells; details: for fold-induction: FSK 5 hrs
[6] = tested on: cAMP response element (CRE); experiment: Transcriptional reporter, forward transfection, CRE in HEK293 cells; type: cell-based, human; details: 3 h; for baseline: 10 nM FSK
Description: HEK293 cells were plated at 15,000 cells/well in six 96-well tissue culture plates. Cells were grown in 100 μL of DMEM+10% FBS+1× non-essential amino acids (NEAA) and incubated overnight at 37° C. The cells were transiently transfected with either 10 ng or 100 ng plasmid DNA/well of pGL4.29 9B8 opt, pGL4.29 9B8 opt-P, or pGL4.29. Plasmid DNA was mixed with 850 μL of OPTI-MEMO (Invitrogen) and 32.4 μL of FUGENE® HD transfection reagent (Promega Corp.) and incubated at room temperature for 10 min. Eight μL of the transfection/reporter DNA mixture was added to the appropriate wells (2 constructs/plate). Cells were incubated for 4 hrs at 37° C. The medium was replaced with OPTI-MEM®+0.5% dialyzed FBS+1×NEAA+1× sodium pyruvate+1× Penn-Strep and incubated overnight at 37° C.
A lytic reagent containing 100 mM MES pH 6.1, 1 mM CDTA, 150 mM KCl, 35 mM thiourea, 2 mM DTT, 0.25% TERGITOLO NP-9 (v/v), 0.025% MAZUO DF 204, and 20 μM PBI-3939 was added to the cells containing pGL4.29 9B8 opt or pGL4.29 9B8 opt-P and allowed to incubated for 10 min at room temperature (100 μL lytic reagent added to 100 μL cells). ONE-GLO™ assay reagent (Promega Corp.) was added to cells containing pGL4.29 and used according to the manufacturer's protocol (100 μL reagent added to 100 μL cells). Luminescence was measured on a GLOMAX® Luminometer.

[7] = tested on: antioxidant response element (ARE); experiment: Transcriptional reporter, reverse transfection, ARE in HEK293 cells; type: cell-based, human; details: 100 ng DNA, 24 h
Description: HEK293 cells were trypsinized (T75 flask, 3 mL trypsin) and resuspended in […] (approximately 8.9×10^6 total cells) in medium containing DMEM+10% FBS+1×NEAA. Each transcriptional reporter was prepared for transfection by mixing 1.2 mL OPTI-MEM®, 12 μL transcription reporter DNA (100 ng) and 36 μL FUGENE® HD transfection reagent together and incubated at room temperature for 35 min. Following incubation, 624 μL of the transfection/reporter DNA mixture was added to 12 mL of cell suspension and mixed by inversion. After mixing, 100 μL of the cell/DNA mixture was added to wells of a 96-well plate (2 constructs/plate). The cells were incubated at 37° C. for 22 hrs. Tert-butylhydroquinone (a Nrf2 stabilizer; tBHQ; 1 μM (“baseline”) or 20 μM) or sulphoraphane, (an organosulfer antioxidant known to activate Nrf2; 1 μM (“baseline”) or 20 μM) in OPTI-MEM® was added to each well and incubated at 37° C. for 24 hrs. Cells were lysed with 100 μL lytic reagent as described above for the forward transfection. Luminescence was measured on a GLOMAX® Luminometer.

Molecule | fold higher luminescence than hRL (HEK293 cells) | RLU [1] | baseline (CRE [2]) | fold brighter than QUANTILUM Recombinant Luciferase with BRIGHT-GLO [3] | luminescence ([3]; 0.5 pM purified enzyme, 15 min, 10 μM PBI-3939 or BRIGHT-GLO with 500 μM luciferin) | baseline (CRE [4]) | fold-induction ([5]; 30 ng of DNA for transfection) | fold-induction ([5]; 100 ng of DNA for transfection) | induced luminescence higher than Luc2 transcriptional reporter ([5]; FSK induced) | induced luminescence higher than induced Renilla transcriptional reporter ([5]; FSK induced) | baseline ([6]; 10 ng DNA) [RLU] | RLU (10 µM FSK) ([6]; 10 ng DNA) | Response ([6]; 10 ng DNA) | baseline ([6]; 100 ng DNA) | RLU (10 µM FSK) ([6]; 100 ng DNA) | Response ([6]; 100 ng DNA) | RLU (20 μM sulphoraphane) [7] | RLU (20 μM tBHQ) [7] | baseline ([7]; 1 μM sulphoraphane) | baseline ([7]; 1 μM tBHQ)
B1 | approximately 14 fold | – | – | – | – | – | – | – | – | – | – | – | – | – | – | – | – | – | – | –
B2 | – | 23,283,252,000 RLU | 9,187,000 RLU | approximately 8 fold | 19,200 RLU | 39,700,000 RLU | 360 | 109 | approximately 1.5 logs | approximately 2.5 logs | 192810 | 12,926,465 RLU | 67 | 3,078,418 RLU | 104,687,723 RLU | 34 | 89,600,000 RLU | 120,000,000 RLU | 15,600,000 RLU | 15,100,000 RLU
